As a reminder, the stoichiometry N is the number of molecules, sites or subunits per partner or assembly.

Results on one substance are retold here after publication PMC6585436 (Chemistry & biology, 2015).

This experiment concerns the target MtMscL CΔ48 C-GFP (pet15b-MtMscL CΔ(103–151)-S-TEV-GFP-6xHis) (Mycobacterium tuberculosis) (UniProt A5U127). The experiment in a line: native MS.

Turning to “MtMscL CΔ48 C-GFP (pet15b-MtMscL CΔ(103–151)-S-TEV-GFP-6xHis) (from UniProt A5U127 1-102) (domain or fragment)”, the stoichiometry N was 5.
